Publication PMC10441612

Biological target: Noe1-His (Noelin 1 with C-terminal hexa-histidine tag), O88998
Assay: AUC
Conditions: remark: other sources report otherwise

B1: Noe1-His (Noelin 1 with C-terminal hexa-histidine tag), O88998 17-485 (natural protein)
chain: MITNWMSQTLPSLVGLNTTRLSAASGGTLDRSTGVLPTNPEESWQVYSSAQDSEGRCICTVVAPQQTMCSRDARTKQLRQLLEKVQNMSQSIEVLDRRTQRDLQYVEKMENQMKGLETKFKQVEESHKQHLARQFKAIKAKMDELRPLIPVLEEYKADAKLVLQFKEEVQNLTSVLNELQEEIGAYDYDELQSRVSNLEERLRACMQKLACGKLTGISDPVTVKTSGSRFGSWMTDPLAPEGDNRVWYMDGYHNNRFVREYKSMVDFMNTDNFTSHRLPHPWSGTGQVVYNGSIYFNKFQSHIIIRFDLKTEAILKTRSLDYAGYNNMYHYAWGGHSDIDLMVDENGLWAVYATNQNAGNIVISKLDPVSLQILQTWNTSYPKRSAGEAFIICGTLYVTNGYSGGTKVHYAYQTNASTYEYIDIPFQNKYSHISMLDYNPKDRALYAWNNGHQTLYNVTLFHVIRSDEL
modifications: here or on the partner: glycosylated; glycosylated
stoichiometry N: 4
